By Km is commonly meant the substrate concentration at which the rate is half of its maximum. One may read the kcat as the maximal rate divided by the concentration of active sites. By kcat/Km is commonly meant the turnover number divided by the Michaelis constant.

For the series, the system named is Nc1ncnc2c1ncn2[C@@H]1O[C@H](COP(=O)(O)OP(=O)(O)OP(=O)(O)O)[C@@H](O)[C@H]1O. As to the kind of experiment: purified protein. As to conditions: varied substrate not named in table (text: substrates ATP and AMP).

AKeco (Escherichia coli K-12; E114A): the Km was 36 ± 7 µM, the kcat came out at 254 s⁻¹ and the kcat/Km stood at 7.1e+06 M⁻¹ s⁻¹.

For AKeco (Escherichia coli K-12), the Km amounted to 110 ± 9 µM, the kcat was found to be 360 ± 11 s⁻¹ and the kcat/Km worked out at 3.3e+06 M⁻¹ s⁻¹.

The record behind these values is publication PMC12548092, “Exploring Helical Fraying Linked to Dynamics and Catalysis in Adenylate Kinase” (Biochemistry, 2025).
